Data reported in PMC9435597, “Medical contrast agents as promising tools for biomacromolecular SAXS experiments” (Acta Crystallographica. Section D, Structural Biology, 2022).

Biological target: the molecule itself
Experiment: SAXS; P1 in solution, 20 mM Tris pH 7.5, 150 mM NaCl, 15°C, flow mode, SWING beamline; contrast series with Gd-HPDO3A (up to 1341 mM) or iohexol (up to 618 mM); CRYSOL fits with a hexameric atomic model, linearity of I(0)^1/2, Rg

B1: protease 1 from Pyrococcus horikoshii (enzyme)
chain: MKVLFLTANEFEDVELIYPYHRLKEEGHEVYIASFERGTITGKHGYSVKVDLTFDKVNPEEFDALVLPGGRAPERVRLNEKAVSIARKMFSEGKPVASICHGPQILISAGVLRGRKGTSYPGIKDDMINAGVEWVDAEVVVDGNWVSSRVPADLYAWMREFVKLLK
notes: protease 1 (P1) from Pyrococcus horikoshii; Hexamer; also called P1; source: purified following existing protocols (Engilberge et al., 2017)
stoichiometry N: 6
